Columns and labels:
[1] = molecular target: the molecule itself; test: negative-staining EM; protein refolded in the absence of membranes; 2% uranyl acetate
[2] = molecular target: the molecule itself; test: cryo-EM structure; urea-unfolded protein added to an EPL lipid film and refolded by dialysis against 10 mM Tris-HCl pH 8.0; single-particle helical reconstruction or rotational symmetry (tubes, stacked rings, rings)
[3] = molecular target: the molecule itself; test: cryo-EM structure; Vipp1 (α1–α6) with and without EPL membrane reconstitution; single-particle helical reconstruction of rods

| Protein | binding result [2] | also measured |
| --- | --- | --- |
| Vipp1 dL10 (truncation of aa 157–166) (natural protein, Synechocystis sp. PCC 6803, UniProt Q55707 1-267, looked up, Vipp1 (sll0617) of Synechocystis sp; PCC 6803 with aa 157–166 (hinge 2) deleted; The methods describe the purification and tag cleavage only for Vipp1 and Vipp1 (α1–α6); source: E. coli C41) MGLFDRLGRVVRANLNDLVSKAEDPEKVLEQAVIDMQEDLVQLRQAVARTIAEEKRTEQRLNQDTQEAKKWEDRAKLALTNGEENLAREALARKKSLTDTAAAYQTQLAQQRTMSENLRRNLAALEAKISEAKTKKNMLQARAKAAKANAELQQTLAFERMENKVLDMEATSQAAGELAGFGIENQFAQLEASSGVEDELAALKASMAGGALPGTSAATPQLEAAPVDSSVPANNASQDDAVIDQELDDLRRRLNNL | – | binding result [1]: binds |
| Vesicle-inducing protein in plastids 1 (Vipp1), full length, Synechocystis sp. PCC 6803 (natural protein, UniProt Q55707 1-267, looked up, Vipp1 (sll0617) of Synechocystis sp; PCC 6803, full length; The C-terminal His-tag was cut off with 3C protease; residues of the 3C site may remain at the C-terminus; The deposited models hold 215 residues only; also called IM30; WT; not shown: His-tag, C-terminal, cleaved) MGLFDRLGRVVRANLNDLVSKAEDPEKVLEQAVIDMQEDLVQLRQAVARTIAEEKRTEQRLNQDTQEAKKWEDRAKLALTNGEENLAREALARKKSLTDTAAAYQTQLAQQRTMSENLRRNLAALEAKISEAKTKKNMLQARAKAAKANAELQQTLGGLGTSSATSAFERMENKVLDMEATSQAAGELAGFGIENQFAQLEASSGVEDELAALKASMAGGALPGTSAATPQLEAAPVDSSVPANNASQDDAVIDQELDDLRRRLNNL | binds | – |
| Vipp1 dL10Ala (substitution of aa 157–166 to alanine) (natural protein, Synechocystis sp. PCC 6803, UniProt Q55707 1-267, looked up, Vipp1 (sll0617) of Synechocystis sp; PCC 6803 with the hinge 2 region (aa 157–166) replaced by ten alanines; The methods describe the denaturing purification and tag cleavage only for Vipp1 and Vipp1 (α1–α6); this mutant was probably handled in the same way; also called Vipp1dlA10; plasticity-restrained Vipp1 mutant; source: E. coli C41; reconstituted with EPL lipids or without membranes) MGLFDRLGRVVRANLNDLVSKAEDPEKVLEQAVIDMQEDLVQLRQAVARTIAEEKRTEQRLNQDTQEAKKWEDRAKLALTNGEENLAREALARKKSLTDTAAAYQTQLAQQRTMSENLRRNLAALEAKISEAKTKKNMLQARAKAAKANAELQQTLAAAAAAAAAAAFERMENKVLDMEATSQAAGELAGFGIENQFAQLEASSGVEDELAALKASMAGGALPGTSAATPQLEAAPVDSSVPANNASQDDAVIDQELDDLRRRLNNL | binds | – |
| Vipp1 (α1–α6), truncation of helix α0 (aa 1–23) (domain or fragment, Synechocystis sp. PCC 6803, UniProt Q55707 24-267, looked up, Vipp1 (sll0617) of Synechocystis sp; PCC 6803 without helix α0 (aa 1–23 truncated); The models were built from PDB 7O3W with aa 1–22 removed, whereas the construct lacks aa 1–23; Residues of the 3C site may remain at the C-terminus; also called Vipp1(α1-6); truncated Vipp1 lacking α0; not shown: His-tag, C-terminal, cleaved) DPEKVLEQAVIDMQEDLVQLRQAVARTIAEEKRTEQRLNQDTQEAKKWEDRAKLALTNGEENLAREALARKKSLTDTAAAYQTQLAQQRTMSENLRRNLAALEAKISEAKTKKNMLQARAKAAKANAELQQTLGGLGTSSATSAFERMENKVLDMEATSQAAGELAGFGIENQFAQLEASSGVEDELAALKASMAGGALPGTSAATPQLEAAPVDSSVPANNASQDDAVIDQELDDLRRRLNNL | – | binding result [3]: binds |
